This passage reports protein stability index results from the supplement of paper PMC10567573.

The chains are these.
B1: KRT18 (parent)
chain: KSQDLAKIMADIRAQYDELARKNR
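Note: lentivirally expressed fusions sorted by FACS into six bins by GFP to DsRed ratio, PSI derived from sequencing read proportions per bin multiplied by bin number.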

Variants of B1 are the subject of this series. Nature of the series: protein stability index of a GFP-peptide fusion (GPS, HEK-293T) (PSI 1-6); higher = more stable. To be noted: c terminus: a fixed tail appended.
For the variant KSQDLAKIMACIRAQYDELARKNR [D11C], the protein stability index is 1.73.

For KSQDLAKIMALIRAQYDELARKNR [D11L], the protein stability index is 1.52.

With KSQDLAKIMAWIRAQYDELARKNR [D11W], the protein stability index was found to be 1.88.

Consider KSQDLAKIMAMIRAQYDELARKNR [D11M], for which the protein stability index was 2.02.

Regarding KSQDLAKIMANIRAQYDELARKNR [D11N], the protein stability index was determined as 2.84.

Regarding KSQDLAKIMAYIRAQYDELARKNR [D11Y], the protein stability index is 1.7.

For the variant KSQDLAKIMARIRAQYDELARKNR [D11R], the protein stability index amounted to 2.85.

Take KSQDLAKIMAPIRAQYDELARKNR [D11P]: the protein stability index was determined as 3.56.

In the case of KSQDLAKIMAAIRAQYDELARKNR [D11A], the protein stability index was 1.86.

As for KSQDLAKIMAGIRAQYDELARKNR [D11G], the protein stability index came to 2.12.

For KSQDLAKIMADIRAQPDELARKNR [Y16P], the protein stability index was found to be 4.47.

Regarding KSQDLAKIMADIRAQSDELARKNR [Y16S], the protein stability index worked out at 3.88.

For the variant KSQDLAKIMADIRAQLDELARKNR [Y16L], the protein stability index is 3.65.

In the case of KSQDLAKIMADIRAQWDELARKNR [Y16W], the protein stability index amounted to 2.67.

Consider KSQDLAKIMADIRAQDDELARKNR [Y16D], for which the protein stability index was 4.38.

Consider KSQDLAKIMADIRAQRDELARKNR [Y16R], for which the protein stability index was 3.79.

With KSQDLAKIMADIRAQEDELARKNR [Y16E], the protein stability index amounted to 4.37.

Regarding KSQDLAKIMADIRAQFDELARKNR [Y16F], the protein stability index worked out at 2.83.

With KSQDLAKIMADIRAQKDELARKNR [Y16K], the protein stability index turned out to be 3.93.

As for KSQDLAKIMADIRAQGDELARKNR [Y16G], the protein stability index was 3.28.

As for KSQDLAKIMADIRAQNDELARKNR [Y16N], the protein stability index was 4.13.

In the case of KSQDLAKIMADIRAQTDELARKNR [Y16T], the protein stability index is 3.9.

Turning to KSQDLAKIMADIRAQVDELARKNR [Y16V], the protein stability index amounted to 3.58.

As for KSQDLAKIMADIRAQMDELARKNR [Y16M], the protein stability index is 3.31.

As to KSQDLAKIMADIRAQIDELARKNR [Y16I], the protein stability index came to 3.08.

On to KSQDLAKIMADIRAQADELARKNR [Y16A], for which the protein stability index was found to be 4.24.

Turning to KSQDLAKIMADIRAQQDELARKNR [Y16Q], the protein stability index was 3.89.

On to KSQDLAKIMADIRAQHDELARKNR [Y16H], for which the protein stability index came to 3.32.

Turning to KSQDLAKIMADIRAQCDELARKNR [Y16C], the protein stability index was 3.82.

For KSQDLAKIMADIRAQYDELCRKNR [A20C], the protein stability index was 2.38.

In the case of KSQDLAKIMADIRAQYDELFRKNR [A20F], the protein stability index came to 2.69.

In the case of KSQDLAKIMADIRAQYDELKRKNR [A20K], the protein stability index came to 3.19.

For the variant KSQDLAKIMADIRAQYDELIRKNR [A20I], the protein stability index came to 2.47.

For KSQDLAKIMADIRAQYDELHRKNR [A20H], the protein stability index was found to be 3.12.

Take KSQDLAKIMADIRAQYDELDRKNR [A20D]: the protein stability index is 3.42.

Turning to KSQDLAKIMADIRAQYDELERKNR [A20E], the protein stability index turned out to be 4.03.

Turning to KSQDLAKIMADIRAQYDELGRKNR [A20G], the protein stability index worked out at 3.19.

On to KSQDLAKIMADHRAQYDELARKNR [I12H], for which the protein stability index stood at 3.55.

KSQDLAKIMADMRAQYDELARKNR [I12M]: the protein stability index was 4.04.

In the case of KSQDLAKIMADVRAQYDELARKNR [I12V], the protein stability index amounted to 3.28.

As to KSQDLAKIMADCRAQYDELARKNR [I12C], the protein stability index amounted to 3.23.

In the case of KSQDLAKIMADKRAQYDELARKNR [I12K], the protein stability index came to 4.45.

With KSQDLAKIMADNRAQYDELARKNR [I12N], the protein stability index came to 4.26.

As to KSQDLAKIMADRRAQYDELARKNR [I12R], the protein stability index was determined as 3.74.

For the variant KSQDLAKIMADQRAQYDELARKNR [I12Q], the protein stability index stood at 4.41.

With KSQDLAKIMADWRAQYDELARKNR [I12W], the protein stability index is 1.88.

Regarding KSQDLAKIMADERAQYDELARKNR [I12E], the protein stability index was determined as 5.46.

For the variant KSQDLAKIMADYRAQYDELARKNR [I12Y], the protein stability index was determined as 3.55.

In the case of KSQDLAKIMADARAQYDELARKNR [I12A], the protein stability index was determined as 4.

As for KSQDLAKIMADGRAQYDELARKNR [I12G], the protein stability index turned out to be 4.45.

As for KSQDLAKIMADDRAQYDELARKNR [I12D], the protein stability index is 4.77.

Take KSQDLAKIMADSRAQYDELARKNR [I12S]: the protein stability index turned out to be 4.36.

KSQDLAKIMADFRAQYDELARKNR [I12F]: the protein stability index was 3.03.

Consider KSQDLAKIMADLRAQYDELARKNR [I12L], for which the protein stability index amounted to 2.65.

On to KSQDLAKIMADPRAQYDELARKNR [I12P], for which the protein stability index came to 4.56.

For the variant KSQDLAKIMADTRAQYDELARKNR [I12T], the protein stability index came out at 4.07.

On to KSQDLAKIMADIRAQYDEVARKNR [L19V], for which the protein stability index came to 3.27.

In the case of KSQDLAKIMADIRAQYDENARKNR [L19N], the protein stability index came to 3.63.

KSQDLAKIMADIRAQYDEDARKNR [L19D]: the protein stability index is 3.75.

As for KSQDLAKIMADIRAQYDEPARKNR [L19P], the protein stability index stood at 2.98.

With KSQDLAKIMADIRAQYDEFARKNR [L19F], the protein stability index was found to be 2.46.

KSQDLAKIMADIRAQYDEIARKNR [L19I]: the protein stability index is 3.12.

In the case of KSQDLAKIMADIRAQYDEMARKNR [L19M], the protein stability index stood at 3.2.

Regarding KSQDLAKIMADIRAQYDERARKNR [L19R], the protein stability index turned out to be 3.63.

Regarding KSQDLAKIMADIRAQYDEKARKNR [L19K], the protein stability index is 3.74.

On to KSQDLAKIMADIRAQYDEAARKNR [L19A], for which the protein stability index was 3.52.

Take KSQDLAKIMADIRAQYDETARKNR [L19T]: the protein stability index was found to be 3.58.

As for KSQDLAKIMADIRAQYDEEARKNR [L19E], the protein stability index stood at 4.01.

Consider KSQDLAKIMADIRAQYDECARKNR [L19C], for which the protein stability index worked out at 3.08.

As to KSQDLAKIMADIRAQYDEQARKNR [L19Q], the protein stability index was 3.59.

With KSQDLAKIMADIRAQYDEWARKNR [L19W], the protein stability index was determined as 2.38.

As to KSQDLAKIMADIRAQYDEYARKNR [L19Y], the protein stability index came to 2.73.

Consider KSQDLAKIMADIRAQYDEGARKNR [L19G], for which the protein stability index turned out to be 3.44.

Take KSQDLAKIMADIRAQYDEHARKNR [L19H]: the protein stability index amounted to 3.39.

KSQDLAKIMADIRAQYDESARKNR [L19S]: the protein stability index came out at 3.71.

Turning to KSQDLAKIMADIRAQYLELARKNR [D17L], the protein stability index is 2.29.

With KSQDLAKIMADIRAQYIELARKNR [D17I], the protein stability index is 2.01.

As for KSQDLAKIMADIRAQYWELARKNR [D17W], the protein stability index is 1.92.

Consider KSQDLAKIMADIRAQYAELARKNR [D17A], for which the protein stability index worked out at 2.54.

As for KSQDLAKIMADIRAQYCELARKNR [D17C], the protein stability index turned out to be 1.96.

For the variant KSQDLAKIMADIRAQYFELARKNR [D17F], the protein stability index was 2.14.

As for KSQDLAKIMADIRAQYQELARKNR [D17Q], the protein stability index amounted to 2.13.

As for KSQDLAKIMADIRAQYHELARKNR [D17H], the protein stability index came to 2.67.

In the case of KSQDLAKIMADIRAQYGELARKNR [D17G], the protein stability index stood at 2.72.

For the variant KSQDLAKIMADIRAQYMELARKNR [D17M], the protein stability index was found to be 1.51.

Take KSQDLAKIMADIRAQYNELARKNR [D17N]: the protein stability index was 2.65.

With KSQDLAKIMADIRAQYSELARKNR [D17S], the protein stability index came out at 2.41.

In the case of KSQDLAKIMADIRAQYVELARKNR [D17V], the protein stability index stood at 2.2.

For the variant KSQDLAKIMADIRAQYYELARKNR [D17Y], the protein stability index was 2.37.

Consider KSQDLAKIMADIRAQYPELARKNR [D17P], for which the protein stability index came out at 3.16.

With KSQDLAKIMADIRAQYKELARKNR [D17K], the protein stability index worked out at 2.87.

Take KSQDLAKIMADIRAQYRELARKNR [D17R]: the protein stability index stood at 2.61.

In the case of KSQDLAKIMADIRAQYEELARKNR [D17E], the protein stability index turned out to be 1.85.

KSQDLAKIMADIRAQYTELARKNR [D17T]: the protein stability index is 2.27.
